Results from the supplement of paper PMC10567573.

B1: ANKRD44 (parent)
chain: FHCIETLVTTGANVNETDDWGRTA

Variants of: B1
Assay: protein stability index of a GFP-peptide fusion (GPS, HEK-293T) (PSI 1-6); higher = more stable
Conditions: c terminus: a fixed tail appended
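Note: lentivirally expressed fusions sorted by FACS into six bins by GFP to DsRed ratio, PSI derived from sequencing read proportions per bin multiplied by bin number.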

Variant | protein stability index
FHCIETLVTTGANRNETDDWGRTA [V14R] | 2.61
FHCIETLVTTGANWNETDDWGRTA [V14W] | 1.54
FHCIETLVTTGANHNETDDWGRTA [V14H] | 1.94
FHCIETLVTTGANTNETDDWGRTA [V14T] | 2.93
FHCIETLVTTGANYNETDDWGRTA [V14Y] | 1.77
FHCIETLVTTGANQNETDDWGRTA [V14Q] | 2.11
FHCIETLVTTGANINETDDWGRTA [V14I] | 1.82
FHCIETLVTTGANPNETDDWGRTA [V14P] | 2.71
FHCIETLVTTGANNNETDDWGRTA [V14N] | 3
FHCIETLVTTGANFNETDDWGRTA [V14F] | 2.14
FHCIETLVTTGANDNETDDWGRTA [V14D] | 2.26
FHCIETLVTTGANGNETDDWGRTA [V14G] | 1.86
FHCIETLVTTGANCNETDDWGRTA [V14C] | 2.19
FHCIETLVTTGANANETDDWGRTA [V14A] | 2.2
FHCIETLVTTGANLNETDDWGRTA [V14L] | 2.08
FHCIETLVTTGANMNETDDWGRTA [V14M] | 2.07
FHCIETLVTTGANKNETDDWGRTA [V14K] | 2.31
FHCIETLVTTGANENETDDWGRTA [V14E] | 3.04
FHCIETLVTTGANSNETDDWGRTA [V14S] | 2.41
FHCIETLVTTGSNVNETDDWGRTA [A12S] | 2.73
FHCIETLVTTGNNVNETDDWGRTA [A12N] | 2.07
FHCIETLVTTGVNVNETDDWGRTA [A12V] | 1.59
FHCIETLVTTGTNVNETDDWGRTA [A12T] | 2.82
FHCIETLVTTGYNVNETDDWGRTA [A12Y] | 1.88

Variant | protein stability index
FHCIETLVTTGQNVNETDDWGRTA [A12Q] | 2.09
FHCIETLVTTGLNVNETDDWGRTA [A12L] | 2.45
FHCIETLVTTGPNVNETDDWGRTA [A12P] | 1.81
FHCIETLVTTGWNVNETDDWGRTA [A12W] | 3.07
FHCIETLVTTGRNVNETDDWGRTA [A12R] | 2.33
FHCIETLVTTGMNVNETDDWGRTA [A12M] | 2.14
FHCIETLVTTGANVNEFDDWGRTA [T17F] | 2
FHCIETLVTTGANVNENDDWGRTA [T17N] | 1.86
FHCIETLVTTGANVNESDDWGRTA [T17S] | 2.61
FHCIETLVTTGANVNEDDDWGRTA [T17D] | 2.29
FHCIETLVTTGANVNEWDDWGRTA [T17W] | 2.04
FHCIETLVTTGANVNEHDDWGRTA [T17H] | 1.83
FHCIETLVTTGANVNEEDDWGRTA [T17E] | 2.84
FHCIETLVTTGANVNELDDWGRTA [T17L] | 1.76
FHCIETLVTTGANVNERDDWGRTA [T17R] | 1.71
FHCIETLVTTGANVNECDDWGRTA [T17C] | 2.14
FHCIETLVTTGANVNEADDWGRTA [T17A] | 1.92
FHCIETLVTTGANVNEKDDWGRTA [T17K] | 2.02
FHCIETLVTTGANVNEPDDWGRTA [T17P] | 2.6
FHCIETLVTTGANVNEQDDWGRTA [T17Q] | 2.27
FHCIETLVTTGANVNEIDDWGRTA [T17I] | 2.24
FHCIETLVTTGANVNEMDDWGRTA [T17M] | 1.76
FHCIETLVTTGANVNEVDDWGRTA [T17V] | 2
FHCIETLVTTGANVNEYDDWGRTA [T17Y] | 1.9

Variant | protein stability index
FHCIETLVTTGANVNEGDDWGRTA [T17G] | 1.86
FHCIETLVTTGANVNETRDWGRTA [D18R] | 2.17
FHCIETLVTTGANVNETPDWGRTA [D18P] | 1.71
FHCIETLVTTGANVNETYDWGRTA [D18Y] | 2.46
FHCIETLVTTGANVNETIDWGRTA [D18I] | 1.95
FHCIETLVTTGANVNETEDWGRTA [D18E] | 2.09
FHCIETLVTTGANVNETWDWGRTA [D18W] | 2.07
FHCIETLVTTGANVNETADWGRTA [D18A] | 2.07
FHCIETLVTTGANVNETFDWGRTA [D18F] | 2.21
FHCIETLVTTGANVNETQDWGRTA [D18Q] | 1.69
FHCIETLVTTGANVNETHDWGRTA [D18H] | 1.54
FHCIETLVTTGANVNETCDWGRTA [D18C] | 2.14
FHCIETLVTTGANVNETMDWGRTA [D18M] | 1.64
FHCIETLVTTGANVNETNDWGRTA [D18N] | 2.26
FHCIETLVTTGANVNETGDWGRTA [D18G] | 1.79
FHCIETLVTTGANVNETTDWGRTA [D18T] | 1.85
FHCIETLVTTGANVNETKDWGRTA [D18K] | 1.65
FHCIETLVTTGANVNETSDWGRTA [D18S] | 2.18
FHCIETLVTTGANVNETLDWGRTA [D18L] | 2.81
FHCIETLVTTGANVNETVDWGRTA [D18V] | 2.43
FHCIETLVTTGANVNETDDWCRTA [G21C] | 1.76
FHCIETLVTTGANVNETDDWQRTA [G21Q] | 2.21
FHCIETLVTTGANVNETDDWFRTA [G21F] | 1.87
FHCIETLVTTGANVNETDDWKRTA [G21K] | 2.42

Variant | protein stability index
FHCIETLVTTGANVNETDDWMRTA [G21M] | 2.04
FHCIETLVTTGANVNETDDWDRTA [G21D] | 2.71
FHCIETLVTTGANVNETDDWIRTA [G21I] | 2.24
FHCIETLVTTGANVNETDDWWRTA [G21W] | 2.48
FHCIETLVTTGANVNETDDWARTA [G21A] | 2.12
FHCIETLVTTGANVNETDDWYRTA [G21Y] | 1.92
FHCIETLVTTGANVNETDDWTRTA [G21T] | 2.25
FHCIETLVTTGANVNETDDWVRTA [G21V] | 2.27
FHCIETLVTTGANVNETDDWNRTA [G21N] | 1.68
FHCIETLVTTGANVNETDDWERTA [G21E] | 2.33
FHCIETLVTTGANVNETDDWRRTA [G21R] | 2.5
FHCIETLVTTGANVNETDDWHRTA [G21H] | 2.32
FHCIETLVTTGANVNETDDWPRTA [G21P] | 1.98
FHCIETLVTTGANVNETDDWSRTA [G21S] | 1.89
FHCIETLVTTGANVNETDDWLRTA [G21L] | 2.12
FHCIETLVTTGANVNETDDAGRTA [W20A] | 2.99
FHCIETLVTTGANVNETDDHGRTA [W20H] | 2.94
FHCIETLVTTGANVNETDDEGRTA [W20E] | 3.19
FHCIETLVTTGANVNETDDKGRTA [W20K] | 3.03
FHCIETLVTTGANVNETDDRGRTA [W20R] | 2.57
FHCIETLVTTGANVNETDDPGRTA [W20P] | 2.61
FHCIETLVTTGANVNETDDMGRTA [W20M] | 2.47
